Our source for the Mean FL4-H values is patent US20200069794A1.

Test [1] addresses human metapneumovirus (hMPV) fusion (F) protein (Strain: A/TN92-4) (human metapneumovirus) (UniProt Q6WB98). The test can be described thus: flow cytometry, fluorescent staining of Hela cells transfected with hMPV/hPIV3 mRNA constructs; MPE8 at 500 nM plus secondary antibody.
For test [2] the target is unchanged. The test can be described thus: flow cytometry, fluorescent staining of Hela cells transfected with hMPV/hPIV3 mRNA constructs; secondary antibody only (control). (In general: Flow cytometry measures light scatter and fluorescence of single cells or particles in a stream.)

For “hMPV-F-specific antibodies MPE-8 (antibody)”, the Mean FL4-H in test [1] was found to be 617000. Substance “secondary antibody (staining control, 'Secondary only')” yielded a Mean FL4-H in test [2] of 2160.
